This note sets out measurements from patent US20220363778A1 (RESEARCH FOUNDATION FOR THE STATE UNIVERSITY OF NEW YORK, published 2022).

The term Kd denotes the concentration at which binding is half-saturated. Low readings indicate a tighter complex, high ones a looser complex.

Assay [1] concerns the target T1, mouse serum albumin (MSA) (MyBioSource, MBS135633) (mouse, UniProt P07724 25-608, limits assumed).
T1 construct: Immobilised on the SPR chip for kinetics
As to the kind of experiment: SPR, mouse serum albumin injected at about 400 s over 2Rs15d-ColH held on a HER2-Fc chip. The text has this:
Surface plasmon resonance was used to assess HER2 and MSA binding.
On the technique in general: Surface plasmon resonance follows binding to a sensor surface in real time, without labels.

The target in assay [2] is T1, mouse serum albumin (MSA) (MyBioSource, …). As to the kind of experiment: SPR, mouse serum albumin immobilised on the chip, 2Rb17c-ColH-ABD injected at 7.5-75 nM, 10 min dissociation, 1:1 Langmuir fit in Scrubber. On the procedure: (§1) Surface plasmon resonance (SPR) was performed using a Reichert SR7500DC SPR and SR8100 autosampler (Reichert, Depew, N.Y.). HER2-Fc (Sino Biological, Beijing, China, 10004-H02H) or mouse serum albumin (MSA) (MyBioSource, San Diego, Calif., MBS135633) was immobilized onto a carboxymethyl dextran SPR chip (Reichert, Depew, N.Y., 13206066) using 1-Ethyl-3-(3-dimethylaminopropyl)carbodiimide/N-hydroxysuccinimide linker chemistry. A mobile phase of PBS 0.05% Tween-20 at a flow rate of 25 μL/min was used for all binding evaluations. Fusion protein dilutions were injected for 90 seconds, and the chip regenerated following dissociation with a 2-minute injection of a 10 millimolar (mM) glycine buffer pH 1.5. […] The observed sensor-grams were fit to a 1:1 Langmuir binding model in the Scrubber analysis software to obtain the association rate constant (kon), dissociation rate constant (koff), and the equilibrium dissociation constant (KD).

Assay [3] deals with T2, HER2-Fc (Sino Biological, 10004-H02H) (UniProt P04626 23-652).
T2 construct: Bought reagent, immobilised on a carboxymethyl dextran SPR chip by EDC/NHS; not shown: Fc portion of the bought reagent
As to the kind of experiment: SPR, HER2-Fc immobilised, 1:1 Langmuir fit.

Assay [4] deals with T1, mouse serum albumin (MSA) (MyBioSource, …). As to the kind of experiment: SPR, mouse serum albumin immobilised on the chip, 2Rs15d-ColH-ABD injected at 7.5-60 nM, 10 min dissociation, 1:1 Langmuir fit in Scrubber. On the procedure: as §1

B1: 2Rs15d-ColH fusion protein (2Rs15d-Clostridial Collagenase H fusion protein) (other)
chain: QVQLQESGGGSVQAGGSLKLTCAASGYIFNSCGMGWYRQSPGRERELVSRISGDGDTWHKESVKGRFTISQDNVKKTLYLQMNSLKPEDTAVYFCAVCYNLETYWGQGTQVTVSSGGGGSGGGGSGGGGSVQNESKRYTVSYLKTLNYYDLVDLLVKTEIENLPDLFQYSSDAKEFYGNKTRMSFIMDEIGRRAPQYTEIDHKGIPTLVEVVRAGFYLGFHNKELNEINKRSFKERVIPSILAIQKNPNFKLGTEVQDKIVSATGLLAGNETAPPEVVNNFTPILQDCIKNIDRYALDDLKSKALFNVLAAPTYDITEYLRATKEKPENTPWYGKIDGFINELKKLALYGKINDNNSWIIDNGIYHIAPLGKLHSNNKIGIETLTEVMKVYPYLSMQHLQSADQIKRHYDSKDAEGNKIPLDKFKKEGKEKYCPKTYTFDDGKVIIKAGARVEEEKVKRLYWASKEVNSQFFRVYGIDKPLEEGNPDDILTMVIYNSPEEYKLNSVLYGYDTNNGGMYIEPEGTFFTYEREAQESTYTLEELFRHEYTHYLQGRYAVPGQWGRTKLYDNDRLTWYEEGGAELFAGSTRTSGILPRKSIVSNIHNTTRNNRYKLSDTVHSKYGASFEFYNYACMFMDYMYNKDMGILNKLNDLAKNNDVDGYDNYIRDLSSNYALNDKYQDHMQERIDNYENLTVPFVADDYLVRHAYKNPNEIYSEISEVAKLKDAKSEVKKSQYFSTFTLRGSYTGGASKGKLEDQKAMNKFIDDSLKKLDTYSWSGYKTLTAYFTNYKVDSSNRVTYDVVFHGYLPNEGDSKNSLPYGKINGTYKGTEKEKIKFSSEGSFDPDGKIVSYEWDFGDGNKSNEENPEHSYDKVGTYTVKLKVTDDKGESSVSTTTAEIKDLSENKLPVIYMHVPKSGALNQKVVFYGKGTYDPDGSIAGYQWDFGDGSDFSSEQNPSHVYTKKGEYTVTLRVMDSSGQMSEKTMKIKITDPVYPIGTEKEPNNSKETASGPIVPGIPVSGTIENTSDQDYFYFDVITPGEVKIDINKLGYGGATWVVYDENNNAVSYATDDGQNLSGKFKADKPGRYYIHLYMFNGSYMPYRINIELEHHHHHH
notes: Fusion of a VHH (sdAb), a linker, Clostridium collagenase H and a His6 tag, expressed in E. coli SHuffle; also called targeted collagenase; anti-HER2-collagenase fusion protein
Regarding B1, the binding result in assay [1] is recorded as “no binding”.

B2: 2Rb17c-ColH-ABD fusion protein (other)
chain: QVQLQESGGGLVQPGGSLRLSCAASGFIFSNDAMTWVRQAPGKGLEWVSSINWSGTHTNYADSVKGRFTISRDNAKRTLYLQMNSLKDEDTALYYCVTGYGVTKTPTGQGTQVTVSSGGGSGGGSGGGSVQNESKRYTVSYLKTLNYYDLVDLLVKTEIENLPDLFQYSSDAKEFYGNKTRMSFIMDEIGRRAPQYTEIDHKGIPTLVEVVRAGFYLGFHNKELNEINKRSFKERVIPSILAIQKNPNFKLGTEVQDKIVSATGLLAGNETAPPEVVNNFTPILQDCIKNIDRYALDDLKSKALFNVLAAPTYDITEYLRATKEKPENTPWYGKIDGFINELKKLALYGKINDNNSWIIDNGIYHIAPLGKLHSNNKIGIETLTEVMKVYPYLSMQHLQSADQIKRHYDSKDAEGNKIPLDKFKKEGKEKYCPKTYTFDDGKVIIKAGARVEEEKVKRLYWASKEVNSQFFRVYGIDKPLEEGNPDDILTMVIYNSPEEYKLNSVLYGYDTNNGGMYIEPEGTFFTYEREAQESTYTLEELFRHEYTHYLQGRYAVPGQWGRTKLYDNDRLTWYEEGGAELFAGSTRTSGILPRKSIVSNIHNTTRNNRYKLSDTVHSKYGASFEFYNYACMFMDYMYNKDMGILNKLNDLAKNNDVDGYDNYIRDLSSNYALNDKYQDHMQERIDNYENLTVPFVADDYLVRHAYKNPNEIYSEISEVAKLKDAKSEVKKSQYFSTFTLRGSYTGGASKGKLEDQKAMNKFIDDSLKKLDTYSWSGYKTLTAYFTNYKVDSSNRVTYDVVFHGYLPNEGDSKNSLPYGKINGTYKGTEKEKIKFSSEGSFDPDGKIVSYEWDFGDGNKSNEENPEHSYDKVGTYTVKLKVTDDKGESSVSTTTAEIKDLSENKLPVIYMHVPKSGALNQKVVFYGKGTYDPDGSIAGYQWDFGDGSDFSSEQNPSHVYTKKGEYTVTLRVMDSSGQMSEKTMKIKITDPVYPIGTEKEPNNSKETASGPIVPGIPVSGTIENTSDQDYFYFDVITPGEVKIDINKLGYGGATWVVYDENNNAVSYATDDGQNLSGKFKADKPGRYYIHLYMFNGSYMPYRINIEGGGSGGGSLEVLFQGPGGGSLAEAKVLANRELDKYGVSDFYKRLINKAKTVEGVEALKLHILAALPHHHHHH
With B2, the figures for the Kd in assay [2] and in assay [3] were 1.6 nM and 17.1 nM, respectively.

B3: 2Rs15d-ColH-ABD fusion protein (other)
chain: QVQLQESGGGSVQAGGSLKLTCAASGYIFNSCGMGWYRQSPGRERELVSRISGDGDTWHKESVKGRFTISQDNVKKTLYLQMNSLKPEDTAVYFCAVCYNLETYWGQGTQVTVSSGGGSGGGSGGGSVQNESKRYTVSYLKTLNYYDLVDLLVKTEIENLPDLFQYSSDAKEFYGNKTRMSFIMDEIGRRAPQYTEIDHKGIPTLVEVVRAGFYLGFHNKELNEINKRSFKERVIPSILAIQKNPNFKLGTEVQDKIVSATGLLAGNETAPPEVVNNFTPILQDCIKNIDRYALDDLKSKALFNVLAAPTYDITEYLRATKEKPENTPWYGKIDGFINELKKLALYGKINDNNSWIIDNGIYHIAPLGKLHSNNKIGIETLTEVMKVYPYLSMQHLQSADQIKRHYDSKDAEGNKIPLDKFKKEGKEKYCPKTYTFDDGKVIIKAGARVEEEKVKRLYWASKEVNSQFFRVYGIDKPLEEGNPDDILTMVIYNSPEEYKLNSVLYGYDTNNGGMYIEPEGTFFTYEREAQESTYTLEELFRHEYTHYLQGRYAVPGQWGRTKLYDNDRLTWYEEGGAELFAGSTRTSGILPRKSIVSNIHNTTRNNRYKLSDTVHSKYGASFEFYNYACMFMDYMYNKDMGILNKLNDLAKNNDVDGYDNYIRDLSSNYALNDKYQDHMQERIDNYENLTVPFVADDYLVRHAYKNPNEIYSEISEVAKLKDAKSEVKKSQYFSTFTLRGSYTGGASKGKLEDQKAMNKFIDDSLKKLDTYSWSGYKTLTAYFTNYKVDSSNRVTYDVVFHGYLPNEGDSKNSLPYGKINGTYKGTEKEKIKFSSEGSFDPDGKIVSYEWDFGDGNKSNEENPEHSYDKVGTYTVKLKVTDDKGESSVSTTTAEIKDLSENKLPVIYMHVPKSGALNQKVVFYGKGTYDPDGSIAGYQWDFGDGSDFSSEQNPSHVYTKKGEYTVTLRVMDSSGQMSEKTMKIKITDPVYPIGTEKEPNNSKETASGPIVPGIPVSGTIENTSDQDYFYFDVITPGEVKIDINKLGYGGATWVVYDENNNAVSYATDDGQNLSGKFKADKPGRYYIHLYMFNGSYMPYRINIEGGGSGGGSLEVLFQGPGGGSLAEAKVLANRELDKYGVSDFYKRLINKAKTVEGVEALKLHILAALPHHHHHH
notes: The text says (G4S)3 linkers and a TEV site; also called 2Rs15d-ColH-ABD035
Take B3: the affinity in assay [4], expressed as Kd, was 1.5 nM.
